The source of these data is publication PMC4057017.

For the experiment, the target named is BG505 EnvΔCT trimer (cleaved, membrane-derived) (HIV-1 isolate BG505 (clade A)). Kind of experiment: single particle EM reconstruction.

PGT151 Fab returned a stoichiometry N (Fabs per trimer) of 2.
